# Patent US20070093443
# Positions count from the first letter of the chain named. Names and notes keep the numbering of the source.
# T1: Ac-SLGR-AMC
# T1 chain: SLGR
# T2: Complement C4 (human)
# T2 chain 1: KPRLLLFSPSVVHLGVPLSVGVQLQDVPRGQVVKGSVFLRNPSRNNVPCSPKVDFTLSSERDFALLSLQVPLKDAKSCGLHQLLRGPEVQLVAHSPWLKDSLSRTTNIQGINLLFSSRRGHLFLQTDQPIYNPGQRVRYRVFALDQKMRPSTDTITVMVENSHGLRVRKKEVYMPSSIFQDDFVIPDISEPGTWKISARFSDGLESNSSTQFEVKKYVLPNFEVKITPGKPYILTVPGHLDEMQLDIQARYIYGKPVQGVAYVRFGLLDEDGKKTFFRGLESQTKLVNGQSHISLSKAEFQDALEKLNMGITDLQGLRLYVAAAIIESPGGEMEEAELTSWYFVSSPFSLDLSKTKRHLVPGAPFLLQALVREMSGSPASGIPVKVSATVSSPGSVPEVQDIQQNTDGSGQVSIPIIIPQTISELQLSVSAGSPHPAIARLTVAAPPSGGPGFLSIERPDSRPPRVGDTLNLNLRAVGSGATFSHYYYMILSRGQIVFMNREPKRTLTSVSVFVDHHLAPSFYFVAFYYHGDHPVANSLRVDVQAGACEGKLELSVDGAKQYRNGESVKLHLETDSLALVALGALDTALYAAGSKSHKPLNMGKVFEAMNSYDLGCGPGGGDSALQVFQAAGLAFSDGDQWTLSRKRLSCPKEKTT
# T2 chain 2: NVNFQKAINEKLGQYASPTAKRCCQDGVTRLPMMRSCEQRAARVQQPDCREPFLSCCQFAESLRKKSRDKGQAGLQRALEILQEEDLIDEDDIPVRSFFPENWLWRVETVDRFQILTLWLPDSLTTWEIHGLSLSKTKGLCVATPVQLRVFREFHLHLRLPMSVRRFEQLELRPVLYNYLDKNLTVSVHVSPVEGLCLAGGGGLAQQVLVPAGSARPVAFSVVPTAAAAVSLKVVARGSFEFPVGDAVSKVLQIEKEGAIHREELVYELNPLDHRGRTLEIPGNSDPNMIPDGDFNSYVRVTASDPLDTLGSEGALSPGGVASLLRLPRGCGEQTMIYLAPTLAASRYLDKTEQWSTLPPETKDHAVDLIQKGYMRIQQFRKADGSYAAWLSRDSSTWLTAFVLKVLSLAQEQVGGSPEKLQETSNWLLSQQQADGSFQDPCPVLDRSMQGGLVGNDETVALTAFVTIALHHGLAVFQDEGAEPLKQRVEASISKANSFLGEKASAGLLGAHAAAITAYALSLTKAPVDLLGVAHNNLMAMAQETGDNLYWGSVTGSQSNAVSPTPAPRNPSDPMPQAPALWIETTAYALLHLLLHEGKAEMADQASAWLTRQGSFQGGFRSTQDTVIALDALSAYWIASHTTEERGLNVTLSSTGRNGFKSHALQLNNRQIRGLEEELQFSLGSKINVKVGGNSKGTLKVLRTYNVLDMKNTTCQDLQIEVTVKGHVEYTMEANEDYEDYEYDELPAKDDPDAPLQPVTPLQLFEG
# T2 chain 3: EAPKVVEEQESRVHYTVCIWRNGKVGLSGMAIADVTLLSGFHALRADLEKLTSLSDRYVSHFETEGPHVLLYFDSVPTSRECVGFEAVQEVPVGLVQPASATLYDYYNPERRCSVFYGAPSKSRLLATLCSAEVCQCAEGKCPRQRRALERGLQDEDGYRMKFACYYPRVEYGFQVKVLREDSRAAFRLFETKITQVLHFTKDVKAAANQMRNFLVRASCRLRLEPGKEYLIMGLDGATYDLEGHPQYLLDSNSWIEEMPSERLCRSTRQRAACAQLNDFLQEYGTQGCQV
# T3: Ac-RQAR-AMC
# T3 chain: RQAR
# T4: Ac-GLAR-AMC
# T4 chain: GLAR
# T5: Complement C2 (human)
# T5 chain: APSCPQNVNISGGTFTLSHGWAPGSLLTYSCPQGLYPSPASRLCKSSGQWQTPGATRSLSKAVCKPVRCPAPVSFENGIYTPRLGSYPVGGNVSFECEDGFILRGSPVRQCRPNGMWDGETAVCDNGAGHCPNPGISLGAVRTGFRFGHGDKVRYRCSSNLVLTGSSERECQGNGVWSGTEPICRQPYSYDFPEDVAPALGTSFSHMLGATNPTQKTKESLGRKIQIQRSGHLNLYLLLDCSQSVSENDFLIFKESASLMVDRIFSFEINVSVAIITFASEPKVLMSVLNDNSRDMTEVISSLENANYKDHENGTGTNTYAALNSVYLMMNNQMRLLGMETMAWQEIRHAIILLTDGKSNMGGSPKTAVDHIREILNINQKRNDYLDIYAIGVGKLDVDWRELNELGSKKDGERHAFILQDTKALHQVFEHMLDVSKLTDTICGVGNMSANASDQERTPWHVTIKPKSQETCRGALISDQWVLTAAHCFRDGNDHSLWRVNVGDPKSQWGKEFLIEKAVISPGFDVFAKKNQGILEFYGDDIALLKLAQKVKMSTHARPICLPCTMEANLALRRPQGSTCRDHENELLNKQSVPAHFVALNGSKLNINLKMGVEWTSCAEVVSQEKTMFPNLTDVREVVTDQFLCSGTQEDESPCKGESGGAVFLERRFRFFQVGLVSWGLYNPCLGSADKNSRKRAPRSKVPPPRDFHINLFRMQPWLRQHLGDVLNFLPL
# B1: wildtype MT-SP1 protease domain (CB200) (protein)
# chain: VVGGTDADEGEWPWQVSLHALGQGHICGASLISPNWLVSAAHCYIDDRGFRYSDPTQWTAFLGLHDQSQRSAPGVQERRLKRIISHPFFNDFTFDYDIALLELEKPAEYSSMVRPICLPDASHVFPAGKAIWVTGWGHTQYGGTGALILQKGEIRVINQTTCENLLPQQITPRMMCVGFLSGGVDSCQGDSGGPLSSVEADGRIFQAGVVSWGDGCAQRNKPGVYTRLPLFRDWIKENTGV
# B2: modified MT-SP1 CB155 (Y146D/K224F) protease domain (protein)
# chain: B1 chain with Y141D, K221F
# B3: modified MT-SP1 CB42 (Y146E) protease domain (protein)
# chain: B1 chain with F92W, Y141E
# B4: modified MT-SP1 CB331 (I41D/Y146D/K224L) protease domain (protein)
# chain: B1 chain with I26D, Y141D, K221L
# B5: modified MT-SP1 CB349 (I41D/Y146D/K224F) protease domain (protein)
# chain: B1 chain with I26D, Y141D, K221F
# B6: modified MT-SP1 CB387 (Y146D/Q175W/K224L) protease domain (protein)
# chain: B1 chain with Y141D, Q169W, K221L
# Experiments:
# [1] = biological target: Complement component C9 (human)
# Complement component C9 (human), sequence (chain, as listed by the source): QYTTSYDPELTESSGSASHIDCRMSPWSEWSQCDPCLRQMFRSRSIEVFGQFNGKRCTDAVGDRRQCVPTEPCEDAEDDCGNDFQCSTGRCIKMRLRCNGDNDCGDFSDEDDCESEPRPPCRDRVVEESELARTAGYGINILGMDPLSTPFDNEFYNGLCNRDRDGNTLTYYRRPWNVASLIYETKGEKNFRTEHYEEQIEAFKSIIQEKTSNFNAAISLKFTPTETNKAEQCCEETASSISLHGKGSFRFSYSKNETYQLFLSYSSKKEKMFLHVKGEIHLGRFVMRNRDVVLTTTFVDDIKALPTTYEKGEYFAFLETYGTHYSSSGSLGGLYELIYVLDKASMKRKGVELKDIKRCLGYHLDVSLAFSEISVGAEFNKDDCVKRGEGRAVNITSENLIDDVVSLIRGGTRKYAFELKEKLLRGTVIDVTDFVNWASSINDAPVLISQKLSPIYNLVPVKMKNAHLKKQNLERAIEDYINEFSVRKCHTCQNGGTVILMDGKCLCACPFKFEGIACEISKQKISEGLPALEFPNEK
# [2] = biological target: Complement component C6 (human)
# Complement component C6 (human), sequence (chain, as listed by the source): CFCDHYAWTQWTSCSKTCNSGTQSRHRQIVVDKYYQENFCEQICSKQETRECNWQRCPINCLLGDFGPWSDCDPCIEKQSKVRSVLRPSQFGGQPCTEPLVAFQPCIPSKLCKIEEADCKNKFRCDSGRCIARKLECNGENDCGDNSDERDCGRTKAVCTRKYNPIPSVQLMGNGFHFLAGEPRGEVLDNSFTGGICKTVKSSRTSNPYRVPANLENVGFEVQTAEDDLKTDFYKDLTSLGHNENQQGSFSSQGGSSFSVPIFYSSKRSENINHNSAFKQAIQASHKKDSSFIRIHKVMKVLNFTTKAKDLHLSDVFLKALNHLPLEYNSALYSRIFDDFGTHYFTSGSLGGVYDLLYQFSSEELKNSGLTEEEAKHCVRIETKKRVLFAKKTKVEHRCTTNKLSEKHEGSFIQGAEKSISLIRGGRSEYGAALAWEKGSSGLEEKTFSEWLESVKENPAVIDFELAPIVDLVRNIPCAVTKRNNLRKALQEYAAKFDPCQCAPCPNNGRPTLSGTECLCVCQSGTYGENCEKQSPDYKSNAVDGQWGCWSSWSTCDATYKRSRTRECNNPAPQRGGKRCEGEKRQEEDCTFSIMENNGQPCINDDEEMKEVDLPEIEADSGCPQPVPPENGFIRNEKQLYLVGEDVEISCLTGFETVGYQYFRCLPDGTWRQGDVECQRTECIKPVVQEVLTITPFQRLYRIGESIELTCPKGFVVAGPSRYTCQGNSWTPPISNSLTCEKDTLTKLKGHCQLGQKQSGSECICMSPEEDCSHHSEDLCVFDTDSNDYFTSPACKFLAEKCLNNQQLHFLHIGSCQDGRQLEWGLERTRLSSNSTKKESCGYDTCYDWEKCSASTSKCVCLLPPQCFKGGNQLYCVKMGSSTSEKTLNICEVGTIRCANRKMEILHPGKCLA
# [3] = biological target: Complement component C8 (human)
# Complement component C8 (human), sequence (chain, as listed by the source, chain 1 of 3): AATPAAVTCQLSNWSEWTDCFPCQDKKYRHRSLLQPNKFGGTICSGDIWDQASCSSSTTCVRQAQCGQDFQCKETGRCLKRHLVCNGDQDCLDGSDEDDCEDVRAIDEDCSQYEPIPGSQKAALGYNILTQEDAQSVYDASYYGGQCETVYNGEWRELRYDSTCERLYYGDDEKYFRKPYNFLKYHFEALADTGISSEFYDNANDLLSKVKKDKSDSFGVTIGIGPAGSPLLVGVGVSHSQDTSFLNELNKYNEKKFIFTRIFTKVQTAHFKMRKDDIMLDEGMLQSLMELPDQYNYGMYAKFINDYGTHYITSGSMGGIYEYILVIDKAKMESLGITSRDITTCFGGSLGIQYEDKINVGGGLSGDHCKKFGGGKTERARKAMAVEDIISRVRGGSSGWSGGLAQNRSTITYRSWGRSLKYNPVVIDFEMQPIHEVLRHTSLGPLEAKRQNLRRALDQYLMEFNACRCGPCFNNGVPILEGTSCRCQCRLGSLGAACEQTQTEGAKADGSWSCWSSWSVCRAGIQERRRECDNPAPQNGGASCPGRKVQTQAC
# Complement component C8 (human), sequence (chain, as listed by the source, chain 2 of 3): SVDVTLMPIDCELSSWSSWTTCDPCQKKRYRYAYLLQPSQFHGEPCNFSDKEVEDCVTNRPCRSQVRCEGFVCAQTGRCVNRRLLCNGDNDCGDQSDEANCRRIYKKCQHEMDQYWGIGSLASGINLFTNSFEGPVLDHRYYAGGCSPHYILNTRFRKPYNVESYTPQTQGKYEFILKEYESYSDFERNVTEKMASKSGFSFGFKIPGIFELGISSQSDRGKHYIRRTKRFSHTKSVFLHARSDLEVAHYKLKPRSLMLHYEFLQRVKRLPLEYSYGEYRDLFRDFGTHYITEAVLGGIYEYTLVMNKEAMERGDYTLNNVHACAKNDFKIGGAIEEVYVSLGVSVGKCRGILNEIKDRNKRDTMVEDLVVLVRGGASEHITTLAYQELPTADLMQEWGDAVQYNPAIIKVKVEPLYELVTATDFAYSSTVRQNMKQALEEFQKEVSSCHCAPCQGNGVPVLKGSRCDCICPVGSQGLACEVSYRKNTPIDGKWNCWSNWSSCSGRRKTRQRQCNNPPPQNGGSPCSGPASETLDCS
# Complement component C8 (human), sequence (chain, as listed by the source, chain 3 of 3): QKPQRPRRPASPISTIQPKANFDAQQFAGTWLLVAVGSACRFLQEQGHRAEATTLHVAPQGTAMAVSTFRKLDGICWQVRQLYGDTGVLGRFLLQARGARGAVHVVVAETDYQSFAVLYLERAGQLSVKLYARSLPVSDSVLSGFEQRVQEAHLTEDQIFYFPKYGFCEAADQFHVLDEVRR
# Ac-SLGR-AMC = biological target: T1, Ac-SLGR-AMC
# Complement C4 (human) = biological target: T2, Complement C4 (human)
# [4] = biological target: Complement component C7 (human)
# Ac-RQAR-AMC = biological target: T3, Ac-RQAR-AMC
# Ac-GLAR-AMC = biological target: T4, Ac-GLAR-AMC
# Complement C2 (human) = biological target: T5, Complement C2 (human)
# Complement C5 (human), sequence (chain, as listed by the source, chain 1 of 2): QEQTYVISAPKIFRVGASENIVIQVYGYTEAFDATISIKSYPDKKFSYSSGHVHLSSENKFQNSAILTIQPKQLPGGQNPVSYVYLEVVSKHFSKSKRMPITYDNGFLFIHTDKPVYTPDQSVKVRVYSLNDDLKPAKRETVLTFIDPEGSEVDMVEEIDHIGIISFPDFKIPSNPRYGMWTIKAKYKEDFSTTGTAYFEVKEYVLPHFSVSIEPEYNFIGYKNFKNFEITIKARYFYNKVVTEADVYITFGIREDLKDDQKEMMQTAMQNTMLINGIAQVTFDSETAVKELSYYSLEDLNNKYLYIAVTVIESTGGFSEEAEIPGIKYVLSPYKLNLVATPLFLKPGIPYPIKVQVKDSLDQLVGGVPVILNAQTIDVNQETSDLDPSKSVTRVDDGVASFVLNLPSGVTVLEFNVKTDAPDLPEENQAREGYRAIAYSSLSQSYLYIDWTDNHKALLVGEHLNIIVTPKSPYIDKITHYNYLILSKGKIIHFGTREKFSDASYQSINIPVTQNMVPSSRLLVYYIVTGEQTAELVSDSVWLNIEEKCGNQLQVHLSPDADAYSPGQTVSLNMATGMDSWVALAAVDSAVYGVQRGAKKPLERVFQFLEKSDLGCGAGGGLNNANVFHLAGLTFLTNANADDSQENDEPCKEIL
# Complement C5 (human), sequence (chain, as listed by the source, chain 2 of 2): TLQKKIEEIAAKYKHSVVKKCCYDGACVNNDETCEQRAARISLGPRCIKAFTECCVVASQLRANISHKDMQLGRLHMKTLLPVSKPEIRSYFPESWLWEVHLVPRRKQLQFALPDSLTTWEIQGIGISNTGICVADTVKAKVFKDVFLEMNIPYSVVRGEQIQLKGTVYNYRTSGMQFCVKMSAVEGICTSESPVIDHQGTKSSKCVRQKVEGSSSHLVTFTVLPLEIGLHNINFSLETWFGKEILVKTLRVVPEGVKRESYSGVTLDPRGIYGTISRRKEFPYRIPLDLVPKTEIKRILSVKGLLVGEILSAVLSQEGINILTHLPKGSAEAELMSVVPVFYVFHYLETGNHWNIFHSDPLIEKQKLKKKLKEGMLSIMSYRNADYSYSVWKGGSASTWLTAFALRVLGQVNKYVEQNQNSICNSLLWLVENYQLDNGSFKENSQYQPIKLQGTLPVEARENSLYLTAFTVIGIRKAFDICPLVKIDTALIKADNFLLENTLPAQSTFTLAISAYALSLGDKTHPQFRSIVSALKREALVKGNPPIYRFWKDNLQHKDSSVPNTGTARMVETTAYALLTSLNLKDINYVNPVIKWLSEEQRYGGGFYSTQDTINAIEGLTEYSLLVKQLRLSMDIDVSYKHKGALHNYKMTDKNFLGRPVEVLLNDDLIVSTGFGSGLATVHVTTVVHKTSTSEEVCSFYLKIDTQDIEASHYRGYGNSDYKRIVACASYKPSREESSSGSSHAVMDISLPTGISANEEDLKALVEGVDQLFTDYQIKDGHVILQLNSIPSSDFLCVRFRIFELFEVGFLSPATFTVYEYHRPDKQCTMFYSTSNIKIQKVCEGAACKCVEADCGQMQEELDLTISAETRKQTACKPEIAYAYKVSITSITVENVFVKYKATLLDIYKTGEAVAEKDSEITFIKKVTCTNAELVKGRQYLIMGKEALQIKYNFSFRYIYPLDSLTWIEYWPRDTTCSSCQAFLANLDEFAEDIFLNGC
Protein,"kcat/Km (specificity constant), fluorogenic peptide cleavage (Ac-SLGR-AMC)",Fraction of Hemolysis (protease-incubated purified complement protein added back to depleted sera) (Complement C4 (human)),"kcat/Km (specificity constant), fluorogenic peptide cleavage (Ac-RQAR-AMC)","kcat/Km (specificity constant), fluorogenic peptide cleavage (Ac-GLAR-AMC)",Fraction of Hemolysis (protease-incubated purified complement protein added back to depleted sera) (Complement C5 (human)),Fraction of Hemolysis (protease-incubated purified complement protein added back to depleted sera) (Complement C2 (human)),"kcat/Km (specificity constant) of cleavage of full length C2, in gel kinetics (SDS-PAGE densitometry time course) (Complement C2 (human))",Fraction of Hemolysis (protease-incubated purified complement protein added back to depleted sera) (Complement C3 (human)),C3 Western blot of samples of the alternative hemolysis assay (human plasma) (Complement C3 (human)),further results
B1,20000 M⁻¹ s⁻¹,0.97,1.9e+06 M⁻¹ s⁻¹,64000 M⁻¹ s⁻¹,0.888,0,19500 M⁻¹ s⁻¹,0.00834,–,"hemolysis (OD415) by protease-preincubated purified complement protein added back to the corresponding depleted sera [1]: showed no decreased hemolysis as compared to normal sera or the no protease control; hemolysis (OD415) by protease-preincubated purified complement protein added back to the corresponding depleted sera [2]: showed no decreased hemolysis as compared to normal sera or the no protease control; hemolysis (OD415) by protease-preincubated purified complement protein added back to the corresponding depleted sera (Complement C1q (human)): showed no decreased hemolysis as compared to normal sera or the no protease control; hemolysis (OD415) by protease-preincubated purified complement protein added back to the corresponding depleted sera [3]: showed no decreased hemolysis as compared to normal sera or the no protease control; hemolysis (OD415) by protease-preincubated purified complement protein added back to the corresponding depleted sera (Complement C4 (human)): showed no decreased hemolysis as compared to normal sera or the no protease control; hemolysis (OD415) by protease-preincubated purified complement protein added back to the corresponding depleted sera [4]: showed no decreased hemolysis as compared to normal sera or the no protease control; hemolysis (OD415) by protease-preincubated purified complement protein added back to the corresponding depleted sera (Complement C5 (human)): showed no decreased hemolysis as compared to normal sera or the no protease control; cleavage in 90% human plasma by Western blot (Complement C2 (human)): cleaved C2 in human plasma in a dose-dependent manner; fraction C5b-9 generated, Total Complement System Screen (classical and MBL pathways), 1 uM protease in human plasma (Complement C2 (human)): the fraction C5b-9 generated upon complement activation induced by the classical and MBL pathways was almost completely inhibited; hemolysis (OD415) by protease-preincubated purified complement protein added back to the corresponding depleted sera (Complement C2 (human)): resulted in an inhibition of hemolysis as assessed by a reduced OD415 absorbance to levels comparable to the depleted sera control; cleavage in 90% human plasma by Western blot (Complement C3 (human)): none of the tested proteases cleaved C3 in human plasma as compared to the no protease control even at the highest concentration of protease (2000 nM); hemolysis (OD415) by protease-preincubated purified complement protein added back to the corresponding depleted sera (Complement C3 (human)): showed no decreased hemolysis as compared to normal sera or the no protease control"
B2,3700 M⁻¹ s⁻¹,0.944,91000 M⁻¹ s⁻¹,3500 M⁻¹ s⁻¹,0.943,-0.00104,72000 M⁻¹ s⁻¹,0.072,–,–
B3,59000 M⁻¹ s⁻¹,1.04,1.8e+06 M⁻¹ s⁻¹,63000 M⁻¹ s⁻¹,1.02,0.0714,36000 M⁻¹ s⁻¹,0.122,–,–
B4,–,–,–,–,–,–,–,–,cleave C3 as assessed by decreased C3 product as compared to the no protease treated plasma sample,–
B5,–,–,–,–,–,–,–,–,cleave C3 as assessed by decreased C3 product as compared to the no protease treated plasma sample,–
B6,–,–,–,–,–,–,–,–,cleave C3 as assessed by decreased C3 product as compared to the no protease treated plasma sample,–
